Measurements from publication PMC11162469, “Discovery of RXFP2 genetic association in resistant hypertensive men and RXFP2 antagonists for the treatment of resistant hypertension” (Scientific Reports, 2024).

Biological target: RXFP2 mAb 2H3 (rat)
Assay: SPR; Biacore S200; goat anti-rat Fc gamma immobilised on a Series S CM5 chip, purified recombinant rat anti-RXFP2 antibodies captured at 5 µg/mL; rat or human LDLa-linker protein flowed as analyte at 20, 10, 5, 2.5, 1.75 and 0 nM; 1:1 fit model

B1: rat LDLa-linker protein (ratRXFP2-LDLa-linker(20-88)) (domain or fragment)
chain: GSNMVAPLCPKGYFPCGNLTKCLPRAFHCDGVDDCGNGADEDNCGDTSGWTTIFGTVHGNVNKVTLTEE
- Kd: 582 nM
